Source: article PMC5737856 (Nucleic Acids Research, 2017)

T1: PICH, full length (recombinant) (human, UniProt Q2NKX8 1-1250)
T1 sequence (looked up): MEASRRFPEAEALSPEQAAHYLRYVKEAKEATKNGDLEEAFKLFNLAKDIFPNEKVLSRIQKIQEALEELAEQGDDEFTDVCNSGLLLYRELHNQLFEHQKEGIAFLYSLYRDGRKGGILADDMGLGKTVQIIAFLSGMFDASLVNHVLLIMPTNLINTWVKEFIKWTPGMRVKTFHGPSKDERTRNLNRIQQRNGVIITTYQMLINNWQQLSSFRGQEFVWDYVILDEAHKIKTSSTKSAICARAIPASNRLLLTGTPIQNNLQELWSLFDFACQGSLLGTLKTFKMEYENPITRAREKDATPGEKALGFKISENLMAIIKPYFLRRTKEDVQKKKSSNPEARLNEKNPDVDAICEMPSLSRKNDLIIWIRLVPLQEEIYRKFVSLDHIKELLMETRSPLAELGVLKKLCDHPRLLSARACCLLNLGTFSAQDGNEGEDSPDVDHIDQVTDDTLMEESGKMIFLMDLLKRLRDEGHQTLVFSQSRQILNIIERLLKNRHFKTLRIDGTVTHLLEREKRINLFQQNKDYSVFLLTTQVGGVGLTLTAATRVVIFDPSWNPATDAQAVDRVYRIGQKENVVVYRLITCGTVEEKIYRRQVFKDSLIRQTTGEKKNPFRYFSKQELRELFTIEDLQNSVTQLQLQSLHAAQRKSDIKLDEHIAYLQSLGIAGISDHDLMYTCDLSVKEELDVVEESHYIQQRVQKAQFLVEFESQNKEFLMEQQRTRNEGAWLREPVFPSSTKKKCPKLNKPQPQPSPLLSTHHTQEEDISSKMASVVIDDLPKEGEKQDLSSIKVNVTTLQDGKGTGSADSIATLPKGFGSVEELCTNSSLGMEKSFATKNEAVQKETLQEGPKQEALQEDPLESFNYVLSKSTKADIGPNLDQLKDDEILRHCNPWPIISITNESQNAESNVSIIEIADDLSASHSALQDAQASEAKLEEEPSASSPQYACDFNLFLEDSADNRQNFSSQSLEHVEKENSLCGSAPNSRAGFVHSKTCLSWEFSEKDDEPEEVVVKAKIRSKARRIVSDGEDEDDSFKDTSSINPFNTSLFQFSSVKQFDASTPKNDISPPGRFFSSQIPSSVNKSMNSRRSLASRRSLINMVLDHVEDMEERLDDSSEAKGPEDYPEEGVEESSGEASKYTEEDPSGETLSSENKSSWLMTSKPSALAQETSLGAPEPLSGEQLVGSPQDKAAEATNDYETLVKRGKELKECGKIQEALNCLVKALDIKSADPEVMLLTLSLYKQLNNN

T2: catalytic SNF2/HELIC region of PICH (human)
T2 sequence (Q2NKX8 whole entry, looked up): T1 sequence (looked up)

B1: isolated N-terminal region of BEND3 (residues 1-534) (domain or fragment, human, UniProt Q5T5X7 1-534, looked up)
chain: MNSTEFTEDVEEVLKSITVKVETEAEDAALDCSVNSRTSEKHSVDSVLTALQDSSKRKQLVSDGLLDSVPGVKRRRLIPEALLAGMRNRENSSPCQGNGEQAGRGRSLGNVWPGEEEPCNDATTPSYKKPLYGISHKIMEKKNPPSGDLLNVYELFEKANASNSPSSLRLLNEPQKRDCGSTGAGTDNDPNIYFLIQKMFYMLNTLTSNMSQLHSKVDLLSLEVSRIKKQVSPTEMVAKFQPPPEYQLTAAELKQIVDQSLSGGDLACRLLVQLFPELFSDVDFSRGCSACGFAAKRKLESLHLQLIRNYVEVYYPSVKDTAVWQAECLPQLNDFFSRFWAQREMEDSQPSGQVASFFEAEQVDPGHFLDNKDQEEALSLDRSSTIASDHVVDTQDLTEFLDEASSPGEFAVFLLHRLFPELFDHRKLGEQYSCYGDGGKQELDPQRLQIIRNYTEIYFPDMQEEEAWLQQCAQRINDELEGLGLDAGSEGDPPRDDCYDSSSLPDDISVVKVEDSFEGERPGRRSKKIWLVPI
B2: N-terminal TPR motif of PICH (domain or fragment, human)
chain: AEALSPEQAAHYLRYVKEAKEATKNGDLEEAFKLFNLAKDIFPNEKVLSRIQKIQEA
B3: BEND3, full length (from HEK293 cells) (natural protein, human, UniProt Q5T5X7 1-828, looked up)
chain: MNSTEFTEDVEEVLKSITVKVETEAEDAALDCSVNSRTSEKHSVDSVLTALQDSSKRKQLVSDGLLDSVPGVKRRRLIPEALLAGMRNRENSSPCQGNGEQAGRGRSLGNVWPGEEEPCNDATTPSYKKPLYGISHKIMEKKNPPSGDLLNVYELFEKANASNSPSSLRLLNEPQKRDCGSTGAGTDNDPNIYFLIQKMFYMLNTLTSNMSQLHSKVDLLSLEVSRIKKQVSPTEMVAKFQPPPEYQLTAAELKQIVDQSLSGGDLACRLLVQLFPELFSDVDFSRGCSACGFAAKRKLESLHLQLIRNYVEVYYPSVKDTAVWQAECLPQLNDFFSRFWAQREMEDSQPSGQVASFFEAEQVDPGHFLDNKDQEEALSLDRSSTIASDHVVDTQDLTEFLDEASSPGEFAVFLLHRLFPELFDHRKLGEQYSCYGDGGKQELDPQRLQIIRNYTEIYFPDMQEEEAWLQQCAQRINDELEGLGLDAGSEGDPPRDDCYDSSSLPDDISVVKVEDSFEGERPGRRSKKIWLVPIDFDKLEIPQPDFEVPGADCLLSKEQLRSIYESSLSIGNFASRLLVHLFPELFTHENLRKQYNCSGSLGKKQLDPSRIKLIRHYVQLLYPRAKNDRVWTLEFVGKLDERCRRRDTEQRRSYQQQRKVHVPGPECRDLTSYAINPERFREEFEGPPLPPERSSKDFCKIPLDELVVPSPDFPVPSPYLLSDKEVREIVQQSLSVGNFAARLLVRLFPELFTAENLRLQYNHSGACNKKQLDPTRLRLIRHYVEAVYPVEKMEEVWHYECIPSIDERCRRPNRKKCDILKKAKKVEK
B4: BEN domain 1 of BEND3 (domain or fragment, human)
chain: MVAKFQPPPEYQLTAAELKQIVDQSLSGGDLACRLLVQLFPELFSDVDFSRGCSACGFAAKRKLESLHLQLIRNYVEVYYPSVKDTAVWQAECLPQLNDFFSRFWAQREMED
B5: BEN domain 3 of BEND3 (domain or fragment)
chain: VPGADCLLSKEQLRSIYESSLSIGNFASRLLVHLFPELFTHENLRKQYNCSGSLGKKQLDPSRIKLIRHYVQLLYPRAKNDRVWTLEFVGKLDERCRRRDTEQ

Experiments:
SEC + native gel or EMSA = target: the molecule itself; assay: SEC + native gel or EMSA
BEN domain 1 of BEND3 = target: B4; assay: MST
[1] = target: T1, PICH, full length (recombinant); assay: SPR
[2] = target: T1, PICH, full length (recombinant); assay: MST
[3] = target: T2, catalytic SNF2/HELIC region of PICH (human); assay: MST

Binder: B1
binding result (SEC + native gel or EMSA): binds

Binder: B2
Kd (BEN domain 1 of BEND3): 1200 ± 250 nM

Binder: B3
stoichiometry N (SEC + native gel or EMSA): 8 | Kd [1]: 700 ± 300 nM

Binder: B4
Kd [2]: 200 ± 250 nM

Binder: B5
Kd [3]: 1500 nM
